Biological target: the molecule itself
Assay: SEC-MALS; analytical Superdex200 5/150, room temperature, GF buffer (150 mM NaCl, 20 mM HEPES, pH 7.5); oligomeric state of the disulfide-linked assembly

B1: full-length Olfm1 (mouse olfactomedin-1, isoform 1, residues 17-478) (natural protein, UniProt O88998 17-478, looked up)
chain: MITNWMSQTLPSLVGLNTTRLSAASGGTLDRSTGVLPTNPEESWQVYSSAQDSEGRCICTVVAPQQTMCSRDARTKQLRQLLEKVQNMSQSIEVLDRRTQRDLQYVEKMENQMKGLETKFKQVEESHKQHLARQFKAIKAKMDELRPLIPVLEEYKADAKLVLQFKEEVQNLTSVLNELQEEIGAYDYDELQSRVSNLEERLRACMQKLACGKLTGISDPVTVKTSGSRFGSWMTDPLAPEGDNRVWYMDGYHNNRFVREYKSMVDFMNTDNFTSHRLPHPWSGTGQVVYNGSIYFNKFQSHIIIRFDLKTEAILKTRSLDYAGYNNMYHYAWGGHSDIDLMVDENGLWAVYATNQNAGNIVISKLDPVSLQILQTWNTSYPKRSAGEAFIICGTLYVTNGYSGGTKVHYAYQTNASTYEYIDIPFQNKYSHISMLDYNPKDRALYAWNNGHQTLYNVTLFH
modifications: N-linked glycans (eight predicted); interprotein disulfides
notes: the C-terminal VIRSDEL segment is not included; the native signal peptide is replaced by an N-terminal cystatin secretion signal of the vector pUPE107.03; also called noelin; pancortin; source: N-acetylglucosaminyltransferase I-deficient, EBNA1-expressing HEK293 cells, transient expression, secreted; purified (nickel-nitrilotriacetic acid, Superdex200 gel filtration); also unpurified in …
  stoichiometry N: 4

Source: publication PMC4463452, “Olfactomedin-1 Has a V-shaped Disulfide-linked Tetrameric Structure*^([image sbox.jpg])” (The Journal of Biological Chemistry, 2015)
